Measurements published in patent US20190161551A1 (Regeneron, published 2019).

How the values were obtained:
[1] = target: human TrkB expressed on HEK293/SRE-Luc/hTrkB cells (human, UniProt Q16620 32-822); test: cell-based or functional assay
[2] = target: mouse TrkB extracellular domain fused to the transmembrane and cytoplasmic domains of human TrkB, expressed … (mouse; human, UniProt Q16620 431-822, limits assumed); test: cell-based or functional assay
[3] = target: T1, human TrkB extracellular domain expressed with a C-terminal mouse IgG2a Fc tag (human); test: BLI Octet, captured hTrkB.mFc, 300 nM mAb (hNT-4 run)
T1 construct: also called hTrkB-mFc; hTrkB.mFc
Procedure: (§1) Blocking of anti-human TrkB or anti-mouse TrkB antibodies from binding to TrkB by BDNF or NT-4 was evaluated using a real-time bio-layer interferometry (BLI) based Octet HTX instrument. The entire study was performed in 10 mM HEPES pH 7.4, 300 mM NaCl, 3 mM EDTA, 1 mg/mL BSA, 0.02% NaN3 and 0.05% v/v Surfactant Tween-20 (HBS-EBT running buffer) at 25° C. All the samples were dispensed in a 384 tilted well plate and the plate was placed on the orbital shaker with the shake speed of 1000 rpm. hTrkB.mFc was captured on anti-mFc (AMC) Octet sensors while hTrkB.hFc or mTrkB.hFc were captured on anti-hFc (AHC) Octet sensors by dipping in wells containing 10 μg/mL of TrkB reagents for 2 minutes. hTrkB.mFc or hTrkB.hFc captured Octet biosensors were saturated by dipping in wells containing 20 nM of BDNF, hNT-4, or mNT-4 for 2 minutes followed by dipping Octet biosensors in wells containing 300 nM of different TrkB mAbs for 4 minutes. Binding of TrkB mAbs to the complex of TrkB and BDNF, hNT-4, or mNT-4 was determined using Scrubber 2.0c analysis software.

[4] = target: T1, human TrkB extracellular domain …; test: BLI Octet, captured hTrkB.mFc saturated with hNT-4, 300 nM mAb
Procedure: as §1

[5] = target: T1, human TrkB extracellular domain …; test: BLI Octet, captured hTrkB.mFc, 300 nM mAb (BDNF run)
Procedure: as §1

[6] = target: T1, human TrkB extracellular domain …; test: BLI Octet, captured hTrkB.mFc, 300 nM mAb, no ligand
Procedure: as §1

[7] = target: T2, rat TrkB extracellular domain expressed with a C-terminal myc-myc-hexahistidine tag (rat, UniProt Q63604 32-429); test: SPR, mAb captured (anti-hFc), 37C
T2 construct: also called rTrkB.mmH; rTRKB.mmH
Procedure: (§2) Equilibrium dissociation constants (KD values) for TrkB binding to purified anti-TrkB monoclonal antibodies were determined using a real-time surface plasmon resonance biosensor using a Biacore 4000 instrument. All binding studies were performed in 10 mM Hepes pH 7.4, 150 mM NaCl, 3 mM EDTA, and 0.05% v/v Surfactant Tween-20 (HBS-ET running buffer) at 25° C. and 37° C. […] Binding studies were performed on following TrkB reagents; human TrkB extracellular domain expressed with a C-terminal myc-myc-hexahistidine tag (hTRKB.mmH; SEQ ID NO: 76; Accession number NP_001018074.1), mouse TrkB extracellular domain expressed with a C-terminal myc-myc-hexahistidine tag (mTRKB.mmH; SEQ ID NO: 79; Accession number NP_001020245), rat TrkB extracellular domain expressed with a C-terminal myc-myc-hexahistidine tag (rTRKB.mmH; SEQ ID NO: 84; Accession number NP_036863.1), and human TrkB extracellular domain expressed with a C-terminal mouse IgG2a Fc tag (hTrkB-mFc; SEQ ID NO: 77; Accession number NP_001018074.1). […] Kinetic association (kₐ) and dissociation (kd) rate constants were determined by fitting the real-time binding sensorgrams to a 1:1 binding model with mass transport limitation using Scrubber 2.0c curve-fitting software. Binding dissociation equilibrium constants (KD) and dissociative half-lives (t½) were calculated from the kinetic rate constants as: […]

[8] = target: T3, human TrkB extracellular domain expressed with a C-terminal myc-myc-hexahistidine tag (human, UniProt Q16620 32-430); test: SPR, mAb captured (anti-hFc), 37C
T3 construct: also called hTrkB.mmH; hTRKB.mmH
Procedure: as §2

[9] = target: T1, human TrkB extracellular domain …; test: SPR, mAb captured (anti-hFc), 37C
Procedure: as §2

[10] = target: T4, mouse TrkB extracellular domain expressed with a C-terminal myc-myc-hexahistidine tag (mouse, UniProt P15209 32-429); test: SPR, mAb captured (anti-hFc), 37C
T4 construct: also called mTrkB.mmH; mTRKB.mmH
Procedure: as §2

T1 sequence (chain, as listed by the source limits assumed): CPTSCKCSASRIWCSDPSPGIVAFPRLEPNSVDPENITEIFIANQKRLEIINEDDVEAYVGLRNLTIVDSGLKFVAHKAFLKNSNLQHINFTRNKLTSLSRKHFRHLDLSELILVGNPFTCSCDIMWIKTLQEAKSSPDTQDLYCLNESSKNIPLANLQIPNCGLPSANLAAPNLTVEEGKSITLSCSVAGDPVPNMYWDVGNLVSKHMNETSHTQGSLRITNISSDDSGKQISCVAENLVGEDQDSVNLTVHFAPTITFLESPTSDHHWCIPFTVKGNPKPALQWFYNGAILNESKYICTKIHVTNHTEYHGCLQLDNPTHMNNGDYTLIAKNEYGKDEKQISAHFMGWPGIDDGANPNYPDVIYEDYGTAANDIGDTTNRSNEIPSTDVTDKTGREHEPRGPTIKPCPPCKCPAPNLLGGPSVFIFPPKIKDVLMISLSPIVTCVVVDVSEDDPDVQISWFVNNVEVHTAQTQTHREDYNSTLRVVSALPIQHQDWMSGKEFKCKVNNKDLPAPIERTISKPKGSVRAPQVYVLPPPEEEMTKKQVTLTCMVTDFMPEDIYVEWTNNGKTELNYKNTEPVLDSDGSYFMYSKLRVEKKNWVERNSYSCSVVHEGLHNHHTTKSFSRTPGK
T3 sequence (Q16620 other isoform, or with tags, fused parts or gaps): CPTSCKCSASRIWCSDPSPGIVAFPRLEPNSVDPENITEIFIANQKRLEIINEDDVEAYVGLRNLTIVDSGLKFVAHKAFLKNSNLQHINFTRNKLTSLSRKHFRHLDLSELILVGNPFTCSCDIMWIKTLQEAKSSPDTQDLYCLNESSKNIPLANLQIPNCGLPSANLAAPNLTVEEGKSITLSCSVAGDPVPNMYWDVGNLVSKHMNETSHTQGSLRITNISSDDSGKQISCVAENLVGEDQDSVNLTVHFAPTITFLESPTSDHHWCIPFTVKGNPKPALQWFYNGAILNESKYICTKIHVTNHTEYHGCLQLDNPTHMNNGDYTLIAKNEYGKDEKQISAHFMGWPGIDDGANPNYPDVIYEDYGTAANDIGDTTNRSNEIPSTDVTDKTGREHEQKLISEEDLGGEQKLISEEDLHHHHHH
human TrkB expressed on HEK293/SRE-Luc/hTrkB cells, sequence (Q16620 32-822): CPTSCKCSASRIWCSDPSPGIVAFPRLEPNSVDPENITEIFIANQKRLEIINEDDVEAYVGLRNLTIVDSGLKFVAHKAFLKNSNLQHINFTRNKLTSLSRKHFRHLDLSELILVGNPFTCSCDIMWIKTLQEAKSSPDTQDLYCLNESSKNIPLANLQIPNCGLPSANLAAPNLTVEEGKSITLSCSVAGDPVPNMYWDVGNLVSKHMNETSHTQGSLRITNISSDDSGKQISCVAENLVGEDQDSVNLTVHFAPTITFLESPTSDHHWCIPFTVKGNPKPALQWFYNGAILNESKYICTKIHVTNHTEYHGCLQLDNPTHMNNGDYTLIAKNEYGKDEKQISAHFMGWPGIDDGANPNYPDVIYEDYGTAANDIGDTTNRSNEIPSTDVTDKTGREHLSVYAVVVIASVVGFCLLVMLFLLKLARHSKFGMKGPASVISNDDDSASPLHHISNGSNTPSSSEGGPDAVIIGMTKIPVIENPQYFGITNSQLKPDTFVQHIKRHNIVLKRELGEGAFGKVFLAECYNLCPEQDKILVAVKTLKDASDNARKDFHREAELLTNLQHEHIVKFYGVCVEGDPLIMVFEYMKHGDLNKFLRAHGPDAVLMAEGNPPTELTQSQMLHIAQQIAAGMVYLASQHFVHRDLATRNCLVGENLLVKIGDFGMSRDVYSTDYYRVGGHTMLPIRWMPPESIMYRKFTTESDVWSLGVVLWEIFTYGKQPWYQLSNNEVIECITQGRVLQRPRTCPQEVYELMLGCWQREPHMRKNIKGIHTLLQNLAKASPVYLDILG
mouse TrkB extracellular domain fused to the transmembrane and cytoplasmic domains of human TrkB, expressed …, sequence (Q16620 other isoform, or with tags, fused parts or gaps limits assumed, form in doubt): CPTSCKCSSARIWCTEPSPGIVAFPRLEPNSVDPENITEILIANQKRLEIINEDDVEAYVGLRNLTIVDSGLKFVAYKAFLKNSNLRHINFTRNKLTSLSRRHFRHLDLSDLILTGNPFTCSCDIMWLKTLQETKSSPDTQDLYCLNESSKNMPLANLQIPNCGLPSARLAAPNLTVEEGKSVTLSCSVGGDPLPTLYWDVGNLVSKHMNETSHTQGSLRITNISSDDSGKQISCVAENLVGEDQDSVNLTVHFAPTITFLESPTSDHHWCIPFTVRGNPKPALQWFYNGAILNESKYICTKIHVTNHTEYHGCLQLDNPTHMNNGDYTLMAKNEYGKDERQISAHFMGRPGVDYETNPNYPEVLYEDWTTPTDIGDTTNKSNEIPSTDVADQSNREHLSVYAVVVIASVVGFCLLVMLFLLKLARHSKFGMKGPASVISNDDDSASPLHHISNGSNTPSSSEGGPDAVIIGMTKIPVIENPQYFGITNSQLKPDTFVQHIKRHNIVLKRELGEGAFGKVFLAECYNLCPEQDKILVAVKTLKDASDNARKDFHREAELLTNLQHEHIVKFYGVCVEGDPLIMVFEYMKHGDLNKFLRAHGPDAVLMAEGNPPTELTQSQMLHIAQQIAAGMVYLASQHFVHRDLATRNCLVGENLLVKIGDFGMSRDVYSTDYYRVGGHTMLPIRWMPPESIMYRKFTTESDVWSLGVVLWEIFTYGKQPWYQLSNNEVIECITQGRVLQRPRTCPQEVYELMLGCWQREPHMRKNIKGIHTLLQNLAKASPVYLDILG
T2 sequence (Q63604 other isoform, or with tags, fused parts or gaps): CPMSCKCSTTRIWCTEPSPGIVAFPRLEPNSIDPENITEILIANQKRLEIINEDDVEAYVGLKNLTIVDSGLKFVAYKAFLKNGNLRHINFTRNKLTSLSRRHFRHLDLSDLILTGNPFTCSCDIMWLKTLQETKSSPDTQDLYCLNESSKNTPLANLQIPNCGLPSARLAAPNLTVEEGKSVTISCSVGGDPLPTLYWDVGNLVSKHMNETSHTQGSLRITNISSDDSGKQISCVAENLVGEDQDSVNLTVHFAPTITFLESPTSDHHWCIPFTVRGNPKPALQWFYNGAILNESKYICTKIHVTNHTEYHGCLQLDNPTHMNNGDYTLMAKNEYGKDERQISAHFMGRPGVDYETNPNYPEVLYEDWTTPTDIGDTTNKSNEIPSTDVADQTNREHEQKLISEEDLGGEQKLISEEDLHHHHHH
T4 sequence (P15209 other isoform, or with tags, fused parts or gaps): as the sequence (Q63604 other isoform, or with tags, fused parts or gaps) above, with M3T, T9S, T10A, I32V, K63R, G84S, T153M, I185L, T394S counted along it

B1: H4H9816P2 (antibody, human IgG4 S228P, kappa, V domains shown)
VH: EVQLVESGGGLVQPGGSLTLSCAASGFNFRDYEMIWVRQTPGKGLEWISYISNSGYTIYYADSVKGRFTISRDNARNSIYLQVNSLRAEDTAVYYCSRRTTMIRGIRAYYYYGLDVWGQGTTVTVSS
VL: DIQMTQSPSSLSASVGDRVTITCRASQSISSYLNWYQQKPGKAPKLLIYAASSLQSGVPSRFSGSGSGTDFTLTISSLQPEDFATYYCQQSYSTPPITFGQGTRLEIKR
notes: Fully human anti-human TrkB agonist antibody, human IgG4 Fc; also called H4H9816P-L1
B1 was tested, and the “Activation (%), SRE-luciferase, 100 pM BDNF” value [1] was 78%, the “Activation (%), SRE-luciferase, No BDNF” value [1] was 90% and the “EC50 (M), SRE-luciferase, 100 pM BDNF” value [1] was 4.5e-11 M. For the same binder, the “EC50 (M), SRE-luciferase, No BDNF” value [1] was 6.3e-11 M, the “Activation (%), SRE-luciferase, 100 pM BDNF” value [2] was 58% and the “Activation (%), SRE-luciferase, No BDNF” value [2] was 0%. The “mAb Binding (nm)” value [3] was 0.18 nm, the “antibody Binding (nm)” value [4] was 0.24 nm and the “mAb Binding (nm)” value [5] was 0.19 nm. For the same binder, the “antibody Binding (nm)” value [6] was 0.19 nm, the “100 nM rTrkB.mmH Bound (RU)” value [7] was 0 RU and the binding result [7] was “no binding (tested: 100 nM)”. The “100 nM hTrkB.mmH Bound (RU)” value [8] was 12 RU, the Kd [8] was 70.8 nM and the koff [8] was 0.00374 s⁻¹. For the same binder, the kon [8] was 52800 M⁻¹ s⁻¹, the “t½” value [8] was 3.1 min and the “100 nM hTrkB-mFc Bound (RU)” value [9] was 14 RU. The Kd [9] was 3.46 nM, the koff [9] was 0.00024 s⁻¹ and the kon [9] was 69500 M⁻¹ s⁻¹. For the same binder, the “t½” value [9] was 48 min and the “100 nM mTrkBmmH Bound (RU)” value [10] was 0 RU.
